“Also recorded” adds a separate entry of the source.
Assays:
[1] = system: lung fibroblasts; test: Collagen production, metabolic labeling with 14C-proline, PAGE and autoradiography; assay type: cell-based, human
Protocol: Collagen Production Assays. Production of collagen was assessed using metabolic labeling with ^14C-proline and Western blotting with anti-collagen type I antibody. For metabolic labeling of collagen, fibroblasts were plated at 2×10^5 cells/well in 6-well plates (Costar, Cambridge, Mass.), in duplicates, incubated overnight in 3 ml/well of high serum medium, and then for 24 h in low-serum medium. After that, the culture medium was replaced with 1 ml/well of fresh low serum medium with or without added test substances and containing ^14C-proline at 1 μCi/ml (Amersham Pharmacia Biotech). After incubation for the desired periods of time, the cell culture supernatants were collected, rapidly frozen in liquid nitrogen and freeze-dried at −70° C. The pellets were dissolved in 100 μl of reducing Laemmli buffer per 1 ml of the cell culture supernatant, and the samples were electrophoretically separated in 7.5% acrylamide gels. Alternatively, samples were concentrated 10-fold by filter centrifugation on 30K Ultrafree-MC filters (Millipore, Bedford, Mass.). Fluorographic images were developed using EN[3H]ANCE autoradiography enhancer (NEN, Boston, Mass.). Gel images were acquired using Storm densitometer (Molecular Dynamics, Sunnyvale, Calif.), and the densities of the bands were analyzed with ImageQuant software (Molecular Dynamics). Dependence of collagen production by fibroblast cultures on the dose of PARC and duration of stimulation were evaluated using one-way ANOVA with post hoc testing.
The identity of collagen bands was confirmed by sensitivity to pepsin and collagenase (both from Sigma) digestion. For pepsin digestion, 2 μl of 1 Macetic acid were added to 40 μl of concentrated fibroblast culture supernatant, followed by 1 μl of pepsin stock, to achieve final concentration of pepsin as indicated in the text. After 15 min of digestion at room temperature, reaction was stopped with 4 μl of 1 M Tris base and 40 μl of reducing Laemmli buffer. For collagenase digestion, 1 μl of 4 U/ml bacterial collagenase and 1 μl of protease inhibitor cocktail (Sigma) were added to 40 μl of sample and digestion performed at room temperature for 30 min. The bacterial collagenase was highly purified and had minimal clostripain and neutral protease activity, as tested by the manufacturer, according to the product information sheet.
To test effects of rhPARC on collagen protein production by lung and dermal fibroblast cell lines, fibroblast cultures were incubated for 48 h with or without 30 ng/ml and 300 ng/ml rhPARC in the low-serum cell culture medium containing 14Cproline for metabolic labeling of collagen. Fibroblast culture supernatants contained two 14C-proline containing bands in gel electrophoresis under reducing conditions (FIGS. 13A and 13B). Digestion with chromatographically pure bacterial collagenase in the presence of protease inhibitors eliminated the bands completely (FIG. 13A). To confirm the identity of these bands, we conducted Western blotting experiments in reducing conditions of fibroblast culture supernatants using an anti-collagen type I antibody, that recognizes α1(I) collagen but not other collagen chains. Digestion with pepsin caused expected decrease in the apparent molecular weight of the immunoreactive collagen from ˜175 kD to ˜125 kD (FIG. 13C).

[2] = system: Sp1; test: Sp1 immunoprecipitation and anti-phosphoserine Western blot; assay type: cell-based, human; details: fibroblasts activated with rhPARC up to 24 hours
Protocol: (§1) To determine if PARC stimulated phosphorylation of Sp1 and Smad3, these factors were immunoprecipitated from lysates of fibroblasts that had been activated with recombinant human PARC for up to 24 hours, and the levels of their phosphorylation were tested in Western blotting assays using anti-phosphoserine and anti-phospho-Smad2/3 antibodies. Equal loading was controlled by stripping the membranes and re-developing them with anti-Sp1, anti-Smad3 and anti-Smad2/3 antibodies (FIG. 17).
(§2) Preparation of fibroblast lysates, immunoprecipitation of Sp1 and Smad2/3, normalization of protein concentration in the samples with BioRad assays, electrophoretic separation, Western blotting, membrane stripping and re-development with different antibodies were performed as described in Atamas et al. (Am. J. Respir. Cell. Mol., 29:743-749 (2003); J. Immunol. 168: 1139-1145 (2002); and Arthritis Rheum., 42:1168-1178 (1999)), which are hereby incorporated by reference. Rabbit antibodies for total Smad2/3 and Sp1 were from Upstate (Waltham, Masss.). Antiphospho-Smad2/3 antibody and goat antibody for total Smad3 were from Santa Cruz Biotechnology (Santa Cruz, Calif.), as was anti-gp130 antibody used to confirm equal loading of the samples. Antiphosphoserine antibody was from Biomol (Plymouth Meeting, Pa.).

[3] = system: Smad3; test: Smad3 immunoprecipitation and phosphorylation Western blot; assay type: cell-based, human; details: fibroblasts activated with cytokine
Protocol: as §1, §2

[4] = system: Sp1; test: EMSA of nuclear lysates with Sp1-specific probe; assay type: cell-based, human; details: consensus and collagen α2(I) promoter-specific probes
Protocol: NushifTM kits for EMSA and supershift assays and reagents for preparation of nuclear extracts were purchased from Active Motif (Carlsbad, Calif.); the procedures were performed according to manufacturer's recommendations, including end-labeling of the specific probes with [γ-^32P]ATP. In addition to the [γ-^32P]ATP-labeled Sp1 consensus probe ([NT] ID NO:5), wild-type and mutant ([NT] ID NO:6) oligo competitors, and an Sp1-specific antibody from the kit, an oligonucleotide representing the Sp1-binding region in the α2(I) collagen promoter ([NT] ID NO:7) was used as a probe (after end-labeling with [γ-^32P]ATP) and as a cold competitor. […] Nuclear extracts were adjusted for total protein content to ensure equal loading. Gels were exposed to a Phosphorimager screen and scanned using a Storm Phosphorimager (Molecular Dynamics); band densities were analyzed with ImageQuant software.

[5] = system: Sp1-sensitive promoter; test: Luciferase assay of Sp1-sensitive promoter (pGAGC6) in transfected lung fibroblasts; assay type: cell-based, human; details: pGAGC6-transfected primary lung fibroblasts
Protocol: FIG. 16. Stimulation with PARC increases Sp1 promoter-stimulating activity in cultured primary lung fibroblasts. Luciferase activity was measured in a chemiluminescence-based assay in cell lysates from the following fibroblast cultures: mock-transfected non-stimulated (Medium), pGAM-transfected non-stimulated (pGAM Ctrl), pGAM-transfected PARC-stimulated (PGAM PARC), pGAGC6-transfected non-stimulated (pGAGC6 Ctrl), and pGAGC6-transfected PARC-stimulated (pGAGC6 PARC).

[6] = system: mouse fibroblasts; test: Collagen Western blot in wild-type and Smad3-/- mouse fibroblasts; assay type: cell-based
Protocol: Collagen was quantified by Western blotting and the identity of collagen bands was confirmed by sensitivity to pepsin and collagenase digestion as described elsewhere in Atamas et al. (Am. J. Respir. Cell. Mol., 29:743-749 (2003)). In these assays, pro-collagen appears as a single or double band with a molecular weight of approximately 175 kDa (4,27,28).
Transient transfection with 1 μg of Sp1 and Smad3 dominant negative mutant constructs abrogated basal and PARC-stimulated upregulation of collagen production, whereas transfection with 0.2 μg of the constructs inhibited the response to PARC stimulation but not basal collagen production (FIG. 19A,B).

B1: rhPARC: Recombinant human pulmonary and activation-regulated chemokine (CC chemokine CCL18), purchased from R&D Systems and Cell Sciences (protein)
chain: AQVGTNKELCCLVYTSWQIPQKFIVDYSETSPQCPKPGVILLTKRGRQICADPNKKWVQKYISDLKLNA
For B1, which “average increase in the density of collagen bands” value ([1]; 48 h, 300 ng/ml rhPARC, responding lung and dermal lines) is on record?
Its value is 3.4±0.9 fold.

And the “increase of fibroblast production of collagen over control” value ([1]; 48 h, five out of seven tested lung and dermal fibroblast lines)?
Its value is “more than 3 fold”.

What about the “combined density of procollagen bands, fold higher than non-stimulated control” value ([1]; LF1 cells, 300 ng/ml rhPARC, 48 h) of the same molecule?
Its value is 3.4 fold.

What about the “combined density of procollagen bands, fold higher than non-stimulated control” value ([1]; LF2 cells, 30 ng/ml rhPARC, 48 h) of the same molecule?
Its value is 2.7 fold.

What about the “combined density of procollagen bands, fold higher than non-stimulated control” value ([1]; LF2 cells, 300 ng/ml rhPARC, 48 h) of the same molecule?
Its value is 4.4 fold.

What about the “response of collagen production in one lung and one dermal fibroblast line” value ([1]; up to 72 h, rhPARC up to 1,000 ng/ml) of the same molecule?
Its value is “non-responsive”.

What about the “level of Sp1 phosphorylation” value [2] of the same molecule?
The value was “consistently increased”.

What about the “phosphorylation of immunoprecipitated Smad3” value [3] of the same molecule?
The value was “No changes in phosphorylation”.

And the “DNA binding by Sp1 (EMSA)” value [4]?
The value was “three-fold increase; also recorded: activates transcription factor Sp1”.

What about the “Sp1 promoter-stimulating activity (luciferase)” value [5] of the same molecule?
The value was “leads to activation of the Sp1-sensitive promoter”.

And the “collagen production response to PARC stimulation” value ([6]; Smad3-/- mouse fibroblasts)?
The value was “did not”.

And the “collagen production response to PARC stimulation” value ([6]; wild-type mouse fibroblasts)?
Its value is “responded to PARC stimulation by upregulating collagen production”.
